From article PMC8786824 (Scientific Reports, 2022) come the findings set out here.

In the assay the target is MERS-CoV RBD (amino acids 367 to 588) of the spike glycoprotein (MERS-CoV, UniProt K9N5Q8). In words: crystal structure. As to conditions: both partners purified.
MERS-CoV RBD (amino acids 367 to 588) of the spike glycoprotein, sequence (K9N5Q8 367-588): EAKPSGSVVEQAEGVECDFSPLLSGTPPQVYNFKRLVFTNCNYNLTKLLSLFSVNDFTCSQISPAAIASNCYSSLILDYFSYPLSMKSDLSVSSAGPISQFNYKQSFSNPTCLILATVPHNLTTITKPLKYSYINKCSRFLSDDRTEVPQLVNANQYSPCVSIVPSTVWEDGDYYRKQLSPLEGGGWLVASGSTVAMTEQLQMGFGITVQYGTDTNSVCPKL

B1: KNIH90-F1 antigen-binding fragment (Fab) (Fab, V domains shown)
VH: QVQLVQSGAEVKRPGSSVKVSCKTSGGTFNNNAINWVRQAPGQGLEWMGGIIPFFGIAKYAQKFQGRVTITADESTSTAYMELSSLRSEDTAVYYCARDLPRESSYGSGSYYTHYYAMDVWGQGTTVTVSS
VL: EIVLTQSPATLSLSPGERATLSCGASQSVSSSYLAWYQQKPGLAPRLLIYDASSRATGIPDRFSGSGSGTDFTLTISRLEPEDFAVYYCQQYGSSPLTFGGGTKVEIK
notes: also called KNIH90-F1 Fab; nAb KNIH90-F1
On to B1, for which the binding result is given as “binds”.
